The target of experiment [1] is T1, kappa-sCD40(1-94)-Flag point mutant T4V (human, UniProt P25942 21-114).
T1 construct: not shown: N-terminal human kappa light chain; C-terminal Flag tag
T1 chain: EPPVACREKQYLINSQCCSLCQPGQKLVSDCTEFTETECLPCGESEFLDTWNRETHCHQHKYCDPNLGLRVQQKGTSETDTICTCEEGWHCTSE
Briefly: ELISA, mutated kappa-sCD40(1-94)-Flag captured on anti-Flag antibody, detection anti-human IgG Fc-HRP; the concentration axis is taken as that of 3C3. As for the experimental part: (§1) 1 μg/ml of purified kappa-sCD40-Flag fusion proteins or CHO cell supernatants containing the sCD40 fusion proteins were captured to microtiter plates that were pre-coated with 5 μg/ml mouse anti-Flag antibody (Sigma) in PBS and blocked with 5% bovine serum albumin in PBS. Following incubation with the CD40 antibody, the microplates were washed with PBS/Tween, and incubated with a goat anti-human IgG Fc polyclonal reagent conjugated to horseradish peroxidase. After washing, the plates were developed with HRP substrate, and analyzed at OD 450-650 using a microtiter plate reader. An ELISA with a goat anti-human IgG Fab2-HRP to measure kappa chain binding was carried out in parallel to validate the sCD40 fusion protein expression from different transfections.

Experiment [2] concerns the target T2, kappa-sCD40(1-94)-Flag point mutant E36K (human, UniProt P25942 21-114).
T2 construct: not shown: N-terminal human kappa light chain; C-terminal Flag tag
T2 chain: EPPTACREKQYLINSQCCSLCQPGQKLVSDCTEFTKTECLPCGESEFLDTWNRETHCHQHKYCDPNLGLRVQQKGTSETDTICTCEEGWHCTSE
Described as above. As for the experimental part:
as §1

Experiment [3] concerns the target T3, soluble human CD40-MsIgG2a (human, UniProt P25942).
T3 construct: soluble, fused to mouse IgG2a; also called recombinant human CD40-msG2a chimeric protein; CD40-MsIgG2a (Celldex, 60 kD by SDS-PAGE)
Briefly: BLI (Octet QKe), antibody captured on anti-human Fc (AHC) biosensors, analyte soluble human CD40-MsIgG2a 3.13 to 0.098 nM, 25 C, 1:1 fit; column head kdis(1/s). The protocol:
Purified antibodies from Example 1 were captured on Anti-Human Fc Capture (AHC) biosensors (Fortebio Product No. 18-5060). Each antibody was prepared in dilution buffer (10mMPO4+150 mM NaCl+1 mg/mL BSA+0.5% Tween 20, pH 7.2) to 0.5 μg/mL and loaded on freshly hydrated AHC biosensors for 35-50 sec at 25° C. and 1000 rpm plate shake speed to achieve a target response of 0.2 nm. Low levels of ligand were captured to limit any effects of mass transport of analyte on kinetic parameters. For one assay, eight biosensors were loaded with the same antibody.
Binding was determined by exposing six of the antibody loaded biosensors to analyte: soluble human CD40-MsIgG2a (Celldex, 60 kD by SDS-PAGE). Affinity measurements were determined using 2-fold serial dilutions of analyte ranging from 3.13 to 0.098 nM in dilution buffer at 25° C. and 1000 rpm plate shake speed. Association of the antibody loaded biosensors in analyte wells was carried out for 1200 seconds, the biosensors were then moved to dilution buffer wells for 2.5 hrs (9000 sec) for dissociation measurements.
Fortebio's Data Analysis Software version 8.2.0.7 (Pall ForteBio, Menlo Park, CA) was used in each case to derive kinetic parameters from the concentration series of analyte in dilution buffer binding to captured antibody. The association and dissociation curves were fitted to a 1:1 binding model using the data analysis software according to the manufacturer's guidelines.
Background: In BLI a coated tip is dipped into the sample, and binding shifts an interference pattern.

T3 sequence (P25942 21-193 limits assumed): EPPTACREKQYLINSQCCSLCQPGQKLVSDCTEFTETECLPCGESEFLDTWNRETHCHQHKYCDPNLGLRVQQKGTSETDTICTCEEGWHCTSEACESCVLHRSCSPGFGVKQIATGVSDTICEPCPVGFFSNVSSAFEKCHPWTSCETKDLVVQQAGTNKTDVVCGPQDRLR

B1: anti-CD40 human monoclonal antibody 3C3 (antibody, human IgG2, kappa, V domains shown)
VH: QVQLVESGGGVVQPGRSLRLSCAGSGFIFSRYGMYWVRQAPGKGLEWVAVIWYDGSYKYYADSVKGRFTISRDNSKNTLYLQMNSLRAEDTAVYYCARESPWYYFDYWGQGTLVTVSS
VL: DIQMTQSPSSLSASVGDRVTITCRASQGISNYLAWYQQKPGKVPKLLIYAASTLQSGVPSRFSGSGSGTDFTLTISSLQPEDVATYYCQKYKSAPFTFGPGTKVDIKR
notes: Human IgG2, C-terminal lysine removed; also called anti-CD40 mAb 3C3; CD40 antibody 3C3
A word on the EC50 (read off the curve): it is the concentration at which the effect is half-maximal. A higher EC50 (read off the curve) goes with a need for much substance. As usually defined, the koff is the rate constant with which the complex falls apart. High values mean fast dissociation, low ones slow dissociation. B1: the “EC50 (read off the curve)” value was roughly 0.02 µg/mL in experiment [1] and roughly 0.09 µg/mL in experiment [2]. In experiment [3], the koff was found to be 8.67e-06 s⁻¹.

The values are drawn from US20250115663A1 (CELLDEX THERAPEUTICS, published 2025).
